This note sets out measurements from PMC8010718, “Direct coupling of oligomerization and oligomerization-driven endocytosis of the dopamine transporter to its conformational mechanics and activity” (The Journal of Biological Chemistry, 2021).

Series [1] concerns the molecule itself. Kind of series: SDS-resistant oligomers on SDS-PAGE and Western blot; PAE cells stably expressing the tagged transporter, incubated with vehicle (DMSO), AIM-100 or ALs (20 μM, 2 h, 37 °C), with or without cocaine; lysis in TGH with 1% deoxycholate; Laemmli buffer 5 min 95 °C; 7.5% SDS-PAGE; GFP antibody. For orientation: Immunoblotting shows a protein as a band on a membrane.

Series [2] deals with the molecule itself. Kind of series: SDS-resistant oligomers on SDS-PAGE and Western blot; striatal synaptosomes of HA-DAT knock-in mice with vehicle, AIM-100 or ALs (20-40 μM, 2 h, 37 °C) in KRHG or KRHG/F12 (1:1); lysates in Laemmli buffer 30 min 42 °C; DAT antibody.

B1: YFP- and HA-epitope tagged dopamine transporter (YFP-HA-DAT), wild type (natural protein, human, UniProt Q01959 1-620, looked up)
chain: MSKSKCSVGLMSSVVAPAKEPNAVGPKEVELILVKEQNGVQLTSSTLTNPRQSPVEAQDRETWGKKIDFLLSVIGFAVDLANVWRFPYLCYKNGGGAFLVPYLLFMVIAGMPLFYMELALGQFNREGAAGVWKICPILKGVGFTVILISLYVGFFYNVIIAWALHYLFSSFTTELPWIHCNNSWNSPNCSDAHPGDSSGDSSGLNDTFGTTPAAEYFERGVLHLHQSHGIDDLGPPRWQLTACLVLVIVLLYFSLWKGVKTSGKVVWITATMPYVVLTALLLRGVTLPGAIDGIRAYLSVDFYRLCEASVWIDAATQVCFSLGVGFGVLIAFSSYNKFTNNCYRDAIVTTSINSLTSFSSGFVVFSFLGYMAQKHSVPIGDVAKDGPGLIFIIYPEAIATLPLSSAWAVVFFIMLLTLGIDSAMGGMESVITGLIDEFQLLHRHRELFTLFIVLATFLLSLFCVTNGGIYVFTLLDHFAAGTSILFGVLIEAIGVAWFYGVGQFSDDIQQMTGQRPSLYWRLCWKLVSPCFLLFVVVVSIVTFRPPHYGAYIFPDWANALGWVIATSSMAMVPIYAAYKFCSLPGSFREKLAYAIAPEKDRELVDRGEVRQFTLRHWLKV
notes: dopamine transporter (DAT), human; also called WT YFP-HA-DAT; wtDAT; source: PAE cells, stably expressing, in intact cells and in lysate
By stoichiometry N is commonly meant the number of molecules, sites or subunits per partner or assembly. For B1, in series [1], the “stoichiometry N” value turned out to be 3.

B2: endogenous HA-DAT of HA-DAT knock-in mice (natural protein, mouse, UniProt Q61327 1-619, looked up)
chain: MSKSKCSVGPMSSVVAPAKEPNAVGPREVELILVKEQNGVQLTNSTLINPPQTPVEVQERETWSKKIDFLLSVIGFAVDLANVWRFPYLCYKNGGGAFLVPYLLFMVIAGMPLFYMELALGQFNREGAAGVWKICPVLKGVGFTVILISFYVGFFYNVIIAWALHYFFSSFTMDLPWIHCNNTWNSPNCSDAHSSNSSDGLGLNDTFGTTPAAEYFERGVLHLHQSRGIDDLGPPRWQLTACLVLVIVLLYFSLWKGVKTSGKVVWITATMPYVVLTALLLRGVTLPGAMDGIRAYLSVDFYRLCEASVWIDAATQVCFSLGVGFGVLIAFSSYNKFTNNCYRDAIITTSINSLTSFSSGFVVFSFLGYMAQKHNVPIRDVATDGPGLIFIIYPEAIATLPLSSAWAAVFFLMLLTLGIDSAMGGMESVITGLVDEFQLLHRHRELFTLGIVLATFLLSLFCVTNGGIYVFTLLDHFAAGTSILFGVLIEAIGVAWFYGVQQFSDDIKQMTGQRPNLYWRLCWKLVSPCFLLYVVVVSIVTFRPPHYGAYIFPDWANALGWIIATSSMAMVPIYATYKFCSLPGSFREKLAYAITPEKDRQLVDRGEVRQFTLRHWLLV
notes: also called endogenous mouse HA-DAT; source: endogenous, striatal synaptosomes from HA-DAT knock-in mice, in lysate
Consider B2, for which the “stoichiometry N” value in series [2] worked out at 3.
